Source: doi:10.1101/2021.05.27.445985

Target: Cy5-labeled human neutrophil peptide 1 (HNP1) (human)
Assay: fluorescence polarisation

## Bovine serum albumin (from UniProt P02769 25-607) (natural protein)
  Kd: 3.4 µM
